From patent US20120129776A1

Target: MrgX1 (Mas-related G-protein coupled receptor member X1) (UniProt Q96LB2)
Assay: cell-based or functional assay

Chain of MrgX1 (Mas-related G-protein coupled receptor member X1) (Q96LB2 whole entry): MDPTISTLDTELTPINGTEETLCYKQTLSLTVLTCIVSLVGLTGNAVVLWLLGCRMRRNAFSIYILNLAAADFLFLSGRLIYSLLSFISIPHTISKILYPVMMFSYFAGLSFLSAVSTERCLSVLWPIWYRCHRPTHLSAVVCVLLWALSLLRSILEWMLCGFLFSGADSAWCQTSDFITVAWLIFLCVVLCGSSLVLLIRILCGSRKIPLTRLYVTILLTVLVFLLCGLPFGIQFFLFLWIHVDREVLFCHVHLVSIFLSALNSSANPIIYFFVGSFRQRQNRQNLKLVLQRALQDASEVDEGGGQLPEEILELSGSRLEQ

EC50 of calcium flux dose response: > 50 nM
Substance: BAM22 (bovine adrenal medulla peptide 22) (from UniProt P01211 206-227)
